Measured values taken from patent US20180371091A1 (JOUNCE THERAPEUTICS, published 2018).

T1: mouse ICOS-hFc (homodimeric, bivalent) (mouse; human, UniProt Q9WVS0 21-142)
T1 construct: also called mICOS-hFc; mouse ICOS-Fc; not shown: human IgG1 Fc (IgG1 backbone)
T1 sequence: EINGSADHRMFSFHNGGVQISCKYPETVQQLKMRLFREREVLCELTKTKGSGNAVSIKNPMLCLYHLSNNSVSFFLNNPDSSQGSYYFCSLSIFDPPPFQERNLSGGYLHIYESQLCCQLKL

T2: mouse ICOS (full length, on cells) (mouse, UniProt Q9WVS0 21-200)
T2 construct: also called CHO-mICOS; mouse ICOS+ CHO cells
T2 sequence: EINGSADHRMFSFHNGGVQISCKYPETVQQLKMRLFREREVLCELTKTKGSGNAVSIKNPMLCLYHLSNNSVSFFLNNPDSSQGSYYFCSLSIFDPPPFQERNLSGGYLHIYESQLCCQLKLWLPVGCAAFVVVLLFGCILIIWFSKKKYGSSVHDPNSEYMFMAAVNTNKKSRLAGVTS

T3: cynomolgus ICOS-Fc (homodimeric, bivalent) (cynomolgus monkey, UniProt Q9Y6W8 21-140 (human entry))
T3 construct: also called cynoICOS-Fc; cyno ICOS-Fc; not shown: human IgG1 Fc (IgG1 backbone)
T3 chain: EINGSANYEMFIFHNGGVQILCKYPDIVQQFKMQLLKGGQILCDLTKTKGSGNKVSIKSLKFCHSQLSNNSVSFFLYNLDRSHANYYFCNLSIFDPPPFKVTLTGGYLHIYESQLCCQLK

T4: mouse CD28 Fc fusion (dimeric) (mouse, UniProt P31041 20-150)
T4 construct: not shown: Fc part not described
T4 sequence (looked up): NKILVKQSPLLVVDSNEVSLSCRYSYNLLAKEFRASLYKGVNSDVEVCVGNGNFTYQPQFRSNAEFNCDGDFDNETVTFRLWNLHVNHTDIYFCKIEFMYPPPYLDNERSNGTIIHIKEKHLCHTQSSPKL

T5: human BTLA Fc fusion (dimeric) (human, UniProt Q7Z6A9 31-157)
T5 construct: not shown: Fc part not described
T5 sequence (looked up): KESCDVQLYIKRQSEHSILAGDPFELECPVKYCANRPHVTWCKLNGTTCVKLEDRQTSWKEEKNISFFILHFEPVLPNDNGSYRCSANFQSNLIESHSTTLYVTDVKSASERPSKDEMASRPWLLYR

T6: mouse BTLA Fc fusion (dimeric) (mouse, UniProt Q7TSA3 30-183)
T6 construct: not shown: Fc part not described
T6 sequence (looked up): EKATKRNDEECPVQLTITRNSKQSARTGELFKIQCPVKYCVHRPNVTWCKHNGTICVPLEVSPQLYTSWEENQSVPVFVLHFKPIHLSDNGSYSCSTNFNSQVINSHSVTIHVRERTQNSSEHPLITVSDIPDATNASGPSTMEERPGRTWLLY

T7: mouse PD-1 Fc fusion (dimeric) (mouse, UniProt Q02242 25-167)
T7 construct: not shown: Fc part not described
T7 sequence (looked up): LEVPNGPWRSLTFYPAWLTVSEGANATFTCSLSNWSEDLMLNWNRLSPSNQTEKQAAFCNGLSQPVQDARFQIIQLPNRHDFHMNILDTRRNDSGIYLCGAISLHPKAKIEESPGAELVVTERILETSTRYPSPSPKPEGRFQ

T8: human CTLA-4 Fc fusion (dimeric) (human, UniProt P16410 37-162)
T8 construct: not shown: Fc part not described
T8 sequence (looked up): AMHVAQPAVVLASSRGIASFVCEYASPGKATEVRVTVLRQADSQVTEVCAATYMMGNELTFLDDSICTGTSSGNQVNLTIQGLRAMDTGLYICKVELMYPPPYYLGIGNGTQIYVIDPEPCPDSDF

T9: monovalent, heterodimeric human ICOS-Fc (human)
T9 construct: Make-up of the heterodimer is not described; also called Monomeric hICOS; monomeric form of human ICOS; not shown: The human IgG1 Fc fused to ICOS, and the partner Fc chain of the heterodimer
T9 chain: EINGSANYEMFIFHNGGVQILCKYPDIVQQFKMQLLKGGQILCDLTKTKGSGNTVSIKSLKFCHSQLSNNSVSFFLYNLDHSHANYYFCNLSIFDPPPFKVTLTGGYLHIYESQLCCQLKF

T10: hICOSL-mG2a (human; mouse, UniProt O75144 19-256, limits assumed)
T10 construct: also called hICOSL-mG2a Fc; not shown: mouse IgG2a Fc
T10 sequence (looked up): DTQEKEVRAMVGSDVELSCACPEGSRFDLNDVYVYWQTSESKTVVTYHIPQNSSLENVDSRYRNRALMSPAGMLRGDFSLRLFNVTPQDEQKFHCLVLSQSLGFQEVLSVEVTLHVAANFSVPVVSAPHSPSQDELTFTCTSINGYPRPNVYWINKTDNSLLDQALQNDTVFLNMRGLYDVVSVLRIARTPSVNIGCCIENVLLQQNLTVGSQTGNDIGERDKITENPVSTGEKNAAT

B1: 7F12 (antibody, V domains shown)
VH: EVQLVESGGGLVKPGGSLTLSCAASGFTFSDYWMDWVRQGPGKGLEWVGNIDEDGSTTYYAPFVKGRFTISRDNAKKTLYLQMNSVKSEDTATYYCTRWGRYAFDSWGQGTLVTVSS
VL: DIVMTQSPSSLAVSPGDKVTINCKSSQSLLSGNYNYLAWYQQKTGQAPKLLIFYASTRHTGVPDRFMGSGSGTDFSLTINSFQTEDLGDYYCQHHYSTPPTFGPGTKLEIK
notes: Armenian hamster monoclonal tested as IgG; also called hamster anti-ICOS 7F12
B2: 37A10 (antibody, V domains shown)
VH: EVQLVESGGGLVKPGGSLKLSCAASGFTFSDYWMDWVRQAPGKGLEWVGNIDEDGSITEYSPFVKGRFTISRDNVKNTLYLQMNSVKSEDTATYYCTRWGRFGFDSWGQGTLVTVSS
VL: DIVMTQSPSSLAVSAGDRVTINCKSSQSLLSGSFNYLTWYQQKTGQAPKLLIFYASTRHTGVPDRFMGSGSGTDFTLTINSFQTEDLGDYYCHHHYNAPPTFGPGTKLELR
notes: Armenian hamster monoclonal tested as IgG; also called hamster anti-ICOS 37A10
B3: 36E10 (antibody, V domains shown)
VH: EVQLVESGGGLVKPGGSLKLSCAASGFTFSDYWMDWVRQAPGKGLEWVGNIDEDGSITEYSPFVKGRFTISRDNVKNILYLQMNSVKSEDTATYYCTRWGRFAFDSWGQGTLVTVSS
VL: DIVMTQSPSSLAVSPGDRVTINCKSSQSLLSGSFHYLTWYQQKTGQAPKLLIFYASTRHTGVPDRFMGSGSGTDFTLTINSFQTEDLGDYYCHHHYNAPPTFGPGTKLELR
notes: Armenian hamster monoclonal tested as IgG; also called hamster anti-ICOS 36E10
B4: 16G10 (antibody, V domains shown)
VH: EVQLVESGGGLVKPGGSLKLSCAASGFTFSDYWMDWVRQAPGKGLEWVGNIDHDGNIINFAPSVKGRFTISRDNAKNTLYLQMNSVKSEDTATYYCARWGHYAFDSWGQGTLVTVSS
VL: DIVMTQSPSSLAVSAGDKVTINCKSSQSLLSSGYNYLIWYQQKTGQAPKLLIFYASTRHTGVPDRFIGSGSGTDFTLTITSFQTEDLGDYYCQHHYSSPPTFGPGTKLEIK
notes: Armenian hamster monoclonal tested as IgG; also called hamster anti-ICOS 16G10
B5: human ICOS-hFc (homodimeric, bivalent) (Fc fusion)
chain: EINGSANYEMFIFHNGGVQILCKYPDIVQQFKMQLLKGGQILCDLTKTKGSGNTVSIKSLKFCHSQLSNNSVSFFLYNLDHSHANYYFCNLSIFDPPPFKVTLTGGYLHIYESQLCCQLKF
notes: also called hICOS-Fc; hICOS-hFc; not shown: human IgG1 Fc (IgG1 backbone)

Assays:
[1] = target: T1, mouse ICOS-hFc (homodimeric, bivalent); test: BLI
Method: (§1) Cross-reactivity measurements were conducted using BLI technology with antibody panels being screened for binding to human, mouse, and cynomolgus ICOS-Fc fusions (homodimeric, bivalent forms).

[2] = target: T2, mouse ICOS (full length, on cells); test: flow cytometry on ICOS+ CHO cells
Excerpt: To assess specificity, binding to human ICOS+ CHO cells and mouse ICOS+ CHO cells was individually analyzed by flow cytometry. As a control to screen out pan-reactive antibodies, staining on CHO cells lacking ICOS receptor expression was also examined. All of the selected antibodies bound to human and mouse ICOS+ CHO cells, and not to CHO cells lacking ICOS expression.

[3] = target: B5; test: BLI, bivalent binding to homodimeric ICOS-Fc
Method: as §1

[4] = target: T3, cynomolgus ICOS-Fc (homodimeric, …); test: BLI, bivalent binding to homodimeric ICOS-Fc
Method: as §1

[5] = target: T11, human CD28 Fc fusion (dimeric) (human, UniProt P10747 19-152); test: binding to dimeric Fc fusions of CD28 family members
T11 construct: not shown: Fc part not described
T11 sequence (P10747 19-152): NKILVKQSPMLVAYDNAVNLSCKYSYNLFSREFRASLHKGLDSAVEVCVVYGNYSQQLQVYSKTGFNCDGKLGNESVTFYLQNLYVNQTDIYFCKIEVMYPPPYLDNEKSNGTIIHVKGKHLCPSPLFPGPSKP
Method: (§2) To further assess the specificity of the anti-ICOS antibodies, the antibodies were screened for binding to additional members of the CD28 protein family (CD28, BTLA, PD-1 and CTLA-4). […] Specifically, binding to Fc fusions (of CD28, BTLA, PD-1 and CTLA-4) in dimeric forms was evaluated, and no binding was observed. For a subset of the CD28 family members, mouse or human protein was over-expressed on the surface of HEK293 and CHOK1 cells. No binding of antibody above background relative to untransduced parental cells was observed.

[6] = target: T4, mouse CD28 Fc fusion (dimeric); test: as above
Method: as §2

[7] = target: T5, human BTLA Fc fusion (dimeric); test: as above
Method: as §2

[8] = target: T6, mouse BTLA Fc fusion (dimeric); test: as above
Method: as §2

[9] = target: T12, human PD-1 Fc fusion (dimeric) (human, UniProt Q15116 25-167); test: as above
T12 construct: not shown: Fc part not described
T12 sequence (Q15116 25-167): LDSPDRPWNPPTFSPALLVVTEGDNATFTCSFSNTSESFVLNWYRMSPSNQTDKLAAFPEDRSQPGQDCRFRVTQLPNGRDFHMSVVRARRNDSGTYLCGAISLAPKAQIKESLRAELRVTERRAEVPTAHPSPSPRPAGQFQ
Method: as §2

[10] = target: T7, mouse PD-1 Fc fusion (dimeric); test: as above
Method: as §2

[11] = target: T8, human CTLA-4 Fc fusion (dimeric); test: as above
Method: as §2

[12] = target: T13, mouse CTLA-4 Fc fusion (dimeric) (mouse, UniProt P09793 36-162); test: as above
T13 construct: not shown: Fc part not described
Method: as §2

[13] = target: T9, monovalent, heterodimeric human ICOS-Fc; test: BLI (Octet RED96), IgG vs monovalent heterodimeric ICOS-Fc
Method: (§3) Affinity measurements were conducted using Bio-Layer Interferometry (BLI) technology (ForteBio Octet® RED96). The monovalent affinities were generated with IgG versions of the antibodies with monovalent, heterodimeric forms of the ICOS receptor. The avid affinities were generated using full-length IgGs against homodimeric forms of the ICOS receptor.

[14] = target: B5; test: BLI (Octet RED96), full-length IgG vs homodimeric ICOS-Fc (avid)
Method: as §3

[15] = target: T10, hICOSL-mG2a; test: BLI, bivalent binding to homodimeric ICOS-Fc

Row | Binder | binding result [1] | binding result [2] | Kd [3] [pM] | koff [3] [s⁻¹] | kon [3] [M⁻¹ s⁻¹] | Kd [4] [pM] | koff [4] [s⁻¹] | kon [4] [M⁻¹ s⁻¹] | binding result [5] | binding result [6] | binding result [7] | binding result [8] | binding result [9] | binding result [10] | binding result [11] | binding result [12] | Kd [13] [pM] | koff [13] [s⁻¹] | Kd [14] [pM] | koff [14] [s⁻¹] | also measured
1 | B1 | binds | binds | 34.2 | 2.3e-05 | 674000 | < 1 | < 1e-07 | 585000 | no binding | no binding | no binding | no binding | no binding | no binding | no binding | no binding | 13200 | 0.00175 | 34.2 | 2.3e-05 | kon [13]: 133000 M⁻¹ s⁻¹; kon [14]: 674000 M⁻¹ s⁻¹
2 | B2 | binds | binds | < 1 | < 1e-07 | 625000 | < 1 | < 1e-07 | 712000 | no binding | no binding | no binding | no binding | no binding | no binding | no binding | no binding | 3180 | 0.000479 | 34.2 | 2.3e-05 | kon [13]: 151000 M⁻¹ s⁻¹; kon [14]: 674000 M⁻¹ s⁻¹
3 | B3 | binds | binds | < 1 | < 1e-07 | 617000 | < 1 | < 1e-07 | 697000 | no binding | no binding | no binding | no binding | no binding | no binding | no binding | no binding | 1590 | 0.000228 | < 1 | < 1e-07 | kon [14]: 626000 M⁻¹ s⁻¹
4 | B4 | binds | binds | < 1 | < 1e-07 | 626000 | < 1 | < 1e-07 | 647000 | no binding | no binding | no binding | no binding | no binding | no binding | no binding | no binding | 4370 | 0.000712 | < 1 | < 1e-07 | kon [13]: 163000 M⁻¹ s⁻¹; kon [14]: 1.01e+06 M⁻¹ s⁻¹
5 | B5 |  |  |  |  |  |  |  |  |  |  |  |  |  |  |  |  |  |  |  |  | Kd [15]: 362 pM; koff [15]: 0.000341 s⁻¹; kon [15]: 941000 M⁻¹ s⁻¹
